Experimental data published in PMC7585734, “Site-specific epitope insertion into recombinant proteins using the MAP tag system” (Journal of Biochemistry, 2020).

T1: MAP tag peptide (14-residue) (Mus musculus)
T1 construct: 14-residue MAP tag derived from mouse podoplanin; also called MAP14 peptide; MAP peptide; source: synthetic peptide; also conjugated to Sepharose
T1 chain: GDGMVPPGIEDKIT

T2: Fn10-nMAP14 (Mus musculus (MAP tag), chimera)
T2 construct: original 14-residue MAP tag derived from mouse podoplanin, at the N-terminus; tenth fibronectin type III domain (Fn10) of human fibronectin, residues 1417-1509; disulphide-linked dimer via the Fc; also called N-terminally MAP-tagged Fn10-Fc; source: Expi293F, transiently transfected, culture supernatant
T2 chain: GDGMVPPGIEDKIT

T3: Fn10-nMAP8 (Mus musculus (MAP tag), chimera)
T3 construct: MAP8 tag, the N-terminal 8 residues of the MAP tag derived from mouse podoplanin, at the N-terminus; tenth fibronectin type III domain (Fn10) of human fibronectin, residues 1417-1509; disulphide-linked dimer via the Fc; also called N-terminally MAP-tagged Fn10-Fc; source: Expi293F, transiently transfected, culture supernatant
T3 chain: GDGMVPPG

T4: Fn10-iFG-G (mouse podoplanin MAP8 tag (carried in …, chimera))
T4 construct: Fn10 of human fibronectin up to Gly1494 of the FG loop; extra Gly residue(s) before the tag; MAP8 tag, derived from mouse podoplanin; extra Gly residue(s) after the tag; Fn10 of human fibronectin from Ser1496; As Fn10-iFG with the inserted MAP8 flanked by extra Gly residues at both ends; source: Expi293F, transiently transfected, culture supernatant
T4 chain: GDGMVPPG


Legend:
[1] = target: T1, MAP tag peptide (14-residue); test: pull-down; purified Fv-clasp samples mixed with MAP14 peptide-conjugated Sepharose, 1 h at room temperature; washed three times with TBS (20 mM Tris pH 7.5, 150 mM NaCl); 15% SDS-PAGE, Coomassie; conditions: both partners purified
Fn10-nMAP14 = target: T2, Fn10-nMAP14; test: pull-down; PMab-1 immobilised on Sepharose; culture supernatants of transfected Expi293F cells; washed three times with TBS; 12.5% non-reducing SDS-PAGE, Coomassie; conditions: one partner purified
Fn10-nMAP8 = target: T3, Fn10-nMAP8; test: as above; conditions: one partner purified
Fn10-iFG-G = target: T4, Fn10-iFG-G; test: as above; conditions: one partner purified

binding result [1]	binding result (Fn10-nMAP14)	binding result (Fn10-nMAP8)	binding result (Fn10-iFG-G)	Binder
binds	–	–	–	PMab-1(QQ) Fv-clasp (other, rat | human, VH domain of rat anti-MAP monoclonal antibody PMab-1; SARAH domain of human Mst1 (anti-parallel coiled coil of the Fv-clasp format); VL domain (kappa) of rat anti-MAP monoclonal antibody PMab-1; SARAH domain of human Mst1 with S37C; Fv-clasp(v2) format, non-tagged version; also called PMab-1(QQ) Fv-clasp mutant; PMab-1VH(S112C)-SARAH with N43Q and N54Q + PMab-1VL-SARAH(S37C)) VH: QIQLQQSGTVLVKPASSVKISCKASGYSFTSHYMHWIRQQPGQGLEWIGWISPEQGNTKYNQKFDGKATLTADKSSSIAYMQLSSLTSEDSAVYFCVSWEDWSAYWGQGTLVTVCS VL: DIVLTQSPALTVSLGQRATISCKTNQNVDYYGNSYVHWYQQKPGQKPKLLIYLASNLASGIPARFSGRGSGTDFTLTIDPVEAADTATYYCQQSRDLPNTFGAGTKLELK
binds	–	–	–	PMab-1 Fv-clasp (other, rat | human, VH domain of PMab-1 with S112C; as the VH of m1 (PDB 6lz4, VH-SARAH chain) but with Asn at 43 and 54 instead of the Gln of the entry; C112 is already in the entry; SARAH domain of human Mst1; VL domain (kappa) of PMab-1; as the VL of m1 (PDB 6lz4, VL-SARAH chain); SARAH domain of human Mst1 with S37C; as in the VL-SARAH chain of m1 (PDB 6lz4), which already holds the Cys; Parent of m1, without …) VH: QIQLQQSGTVLVKPASSVKISCKASGYSFTSHYMHWIRQQPGNGLEWIGWISPENGNTKYNQKFDGKATLTADKSSSIAYMQLSSLTSEDSAVYFCVSWEDWSAYWGQGTLVTVCS VL: DIVLTQSPALTVSLGQRATISCKTNQNVDYYGNSYVHWYQQKPGQKPKLLIYLASNLASGIPARFSGRGSGTDFTLTIDPVEAADTATYYCQQSRDLPNTFGAGTKLELK
–	binds	binds	binds	PMab-1, rat anti-MAP monoclonal antibody (IgG2a, kappa) (antibody, V domains shown, VH of PMab-1; as the VH of m1 (PDB 6lz4, VH-SARAH chain) but with Asn43, Asn54 and Ser112 of the parent antibody; constant region of rat IgG2a heavy chain; VL of PMab-1; as the VL of m1 (PDB 6lz4, VL-SARAH chain); constant region of rat kappa light chain; Whole antibody; immobilised on Sepharose for pull-downs, used at 1.0 ug/ml in flow cytometry; copies: 2 + 2) VH: QIQLQQSGTVLVKPASSVKISCKASGYSFTSHYMHWIRQQPGNGLEWIGWISPENGNTKYNQKFDGKATLTADKSSSIAYMQLSSLTSEDSAVYFCVSWEDWSAYWGQGTLVTVSS VL: DIVLTQSPALTVSLGQRATISCKTNQNVDYYGNSYVHWYQQKPGQKPKLLIYLASNLASGIPARFSGRGSGTDFTLTIDPVEAADTATYYCQQSRDLPNTFGAGTKLELK
